How the values were obtained:
KRS 1-207 aa = target: T1, KRS 1-207 aa (Homo sapiens, UniProt Q15046); test: SPR (Biacore 2000) binding of IgGs to immobilized KRS; details: immobilized KRS 185 RU, antibody 6.25-100 nM
T1 construct: to the antigen (KRS 1-207 aa)
Description: The quantitative binding ability of the purified antibody proteins (N3 IgG and N5 IgG) to the antigen (KRS 1-207 aa) were measured using Biacore 2000 SPR (surface plasmon resonance) (GE healthcare, US) biosensor. After KRS was immobilized on a sensor chip (CM5, GE healthcare, US), antibody proteins (6.25-100 nM), which were serially diluted with HES buffer solution (10 mM HEPES, pH 7.4, 150 mM NaCl, 3 mM EDTA, 0.005% surfactant P20), were allowed to flow at a rate of 30 μl/min for 3 min, and 1 M NaCl/20 mM NaOH was allowed to flow at a rate of 30 μl/min for 3 min, thereby inducing the dissociation of proteins bound to the antigen. Mock IgG was used as control. Specific experiment conditions are as follows:
Immobilized level: 185 RU
Antibody: N3 IgG and N5 IgG
Running buffer: HBS-N buffer
Regeneration: 2 M NaCl, 20 mM NaOH (flow 30 ul/min 1 min)
The affinity was obtained from the kinetic rate constants (ka and kd) and equilibrium dissociation constants (KD) by using BIA evaluation ver. 3.2 software. FIGS. 6A-6B show SPR graph results of N3 IgG and N5 IgG, respectively. It was confirmed from FIGS. 6A-6B and Table 3 that N3 IgG and N5 IgG of the present invention has high specific binding ability to the KRS N-terminal region.

[1] = test system: mouse KRS N-terminal peptide fragments (mF1-mF5); test: SPR (Biacore T200) of immobilized N3 IgG against mouse KRS N-terminal peptide fragments; type: binding
Description: In the same manner as the experimental method described in Example 4-1 above, N3 IgG antibody was immobilized on the chip by using an amine coupling kit (GE Healthcare). Then, the peptides shown in Table 4 above dissolved in PBS solution at corresponding concentrations were allowed to flow for 60 s, and PBS was allowed to flow for 5 min. Then, the binding ability was analyzed by Biacore T200 Evaluation software v2.0 (GE Healthcare).

[2] = test system: pulmonary arterial hypertension (PAH) models; test: Echocardiography in PAH model; type: in vivo, rat; details: MCT PAH rats, five animals per group
Description: To induce PAH in seven-week-old SD rats (Orient Bio), 60 mpk of monocrotaline (MCT) was subcutaneously injected. […] All antibodies were i.v. injected twice a week, and sildenafil was orally administered every day.

KRS = target: T2, KRS (Homo sapiens, UniProt Q15046); test: Western blotting and immunoprecipitation of converted IgGs; type: binding; details: HCT116 cell lysate
T2 construct: endogenous in cells; host or cells: HCT116
T2 sequence (Q15046 whole entry): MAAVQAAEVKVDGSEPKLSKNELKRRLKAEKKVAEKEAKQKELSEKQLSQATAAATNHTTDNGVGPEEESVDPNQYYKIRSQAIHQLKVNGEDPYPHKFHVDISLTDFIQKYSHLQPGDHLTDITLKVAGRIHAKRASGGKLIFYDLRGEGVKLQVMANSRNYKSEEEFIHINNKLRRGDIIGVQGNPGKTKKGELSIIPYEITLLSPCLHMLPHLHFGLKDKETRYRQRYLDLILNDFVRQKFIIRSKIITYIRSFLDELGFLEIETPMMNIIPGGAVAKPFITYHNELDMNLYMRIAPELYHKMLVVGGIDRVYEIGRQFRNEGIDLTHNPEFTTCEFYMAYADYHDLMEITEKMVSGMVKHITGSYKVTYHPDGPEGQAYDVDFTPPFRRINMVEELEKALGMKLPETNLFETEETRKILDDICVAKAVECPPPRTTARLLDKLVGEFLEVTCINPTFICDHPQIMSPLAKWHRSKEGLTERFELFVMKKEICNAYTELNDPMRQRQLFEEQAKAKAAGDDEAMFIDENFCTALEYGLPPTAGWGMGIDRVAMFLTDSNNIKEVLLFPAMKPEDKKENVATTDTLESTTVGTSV

T1 sequence (Q15046 1-207): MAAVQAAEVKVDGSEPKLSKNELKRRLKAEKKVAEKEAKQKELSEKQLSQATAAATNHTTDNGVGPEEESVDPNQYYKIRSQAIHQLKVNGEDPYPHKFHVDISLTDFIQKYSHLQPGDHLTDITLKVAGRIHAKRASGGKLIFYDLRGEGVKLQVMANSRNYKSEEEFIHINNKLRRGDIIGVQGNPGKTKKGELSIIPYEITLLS

Kd (KRS 1-207 aa): 83.4 nM
ka (KRS 1-207 aa): 109000 M⁻¹ s⁻¹
kd (KRS 1-207 aa): 0.009055 s⁻¹
KRS binding ability (western blotting and immunoprecipitation) (KRS): bound to KRS
B1: N3 IgG: IgG converted from N3 scFv; VH SEQ ID NO: 49, VL SEQ ID NO: 51; binds KRS N-terminal region (antibody, V domains shown)
VH: EVQLLESGGGLVQPGGSLRLSCAASGFTFSSYDMSWVRQAPGKGLEWVSAISYDNGNTYYADSVKGRFTISRDNSKNTLYLQMNSLRAEDTAVYYSARMALDFDYWGQGTLVTVSS
VL: QSVLTQPPSASGTPGQRVTISCTGSSSNIGSNYVTWYQQLPGTAPKLLIYDNSNRPSGVPDRFSGSKSGTSASLAISGLRSEDEADYYCASWDDSLSAYVFGGGTKLTVL
relative binding ability, epitope F3 vs F1 (mouse) [1]: stronger binding ability to epitope F3 than F1
binding to mouse KRS N-terminal epitopes F1-F5 (SPR) ([1]; F2 and F4 data not shown): bound to epitopes F1, F2, F3, and F4 of human (h), mouse (m), and rat (r) but not epitope F5
D-shaped left ventricle finding indicating pressure overload in the right ventricle [2]: not observed

Reference: patent US11685791B2, “Antibody binding specifically to N-terminal region of lysyl-tRNA synthetase exposed on cell membrane” (Zymedi Co., Ltd., priority 2017, dated 2023)
